1 substance from PMC11329664 can be followed below.

Where only a bound is given, the exact number is not on record here.

The target in this test is Alexa Fluor 488-conjugated human CD40-CA-His12 (ectodomain of human CD40) (human). The test can be described thus: scanning fluorescence correlation spectroscopy with brightness-transit statistics (sFCS BTS); CD40-AF488-His tethered through Ni-NTA-DGS to a BSA-blocked supported lipid bilayer, titrated to higher surface densities (100 and 175 molecules/µm^2); brightness and transit time compared with the monomeric control AF488-His; 24 °C.

Take “Alexa Fluor 488-conjugated human CD40-CA-His12 (ectodomain of human CD40) (domain or fragment)”: the stoichiometry N – broadly, the number of molecules, sites or subunits per partner or assembly – was above 2.
